Experimental data as given in patent WO2021028752A1 (dated 2021).

Target: recombinant human TNFa (human, UniProt P01375 77-233, 125I label (only in the receptor inhibition assay))
Assay: cell-based or functional assay

Chain of recombinant human TNFa (P01375 77-233 limits assumed): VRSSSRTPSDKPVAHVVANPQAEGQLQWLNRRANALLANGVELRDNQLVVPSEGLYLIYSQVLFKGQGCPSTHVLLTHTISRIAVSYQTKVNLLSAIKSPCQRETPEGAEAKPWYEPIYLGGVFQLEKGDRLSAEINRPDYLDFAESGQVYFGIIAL

B1: TNV196 (antibody, V domains shown)
VH: QVQLVESGGGVVQPGRSLRLSCAASGFTFSSYAMHWVRQAPGKGLEWVAFISYDGSNKKSADSVKGRFTVSRDNSKNTLFLQMNSLRAEDTAVFYCARDRGIGAGGNYYYYGMDVWGQGTTVTVSS
VL: EIVLTQSPATLSLSPGERATLSCRASQSVYSYLAWYQQKPGQAPRLLIYDASNRATGIPARFSGSGSGTDFTLTISSLEPEDFAVYYCQQRSNWPPFTFGPGTKVDIK
B1 was tested, and the “neutralizing TNFa bioactivity” value was 4 fold.
